The experiment has as its target human γδ TCR (Vγ9Vδ2) on human γδ T cells (human). Put plainly: cell-based or functional assay.

Chain of human γδ TCR (Vγ9Vδ2) on human γδ T cells (human) (main, as listed by the source): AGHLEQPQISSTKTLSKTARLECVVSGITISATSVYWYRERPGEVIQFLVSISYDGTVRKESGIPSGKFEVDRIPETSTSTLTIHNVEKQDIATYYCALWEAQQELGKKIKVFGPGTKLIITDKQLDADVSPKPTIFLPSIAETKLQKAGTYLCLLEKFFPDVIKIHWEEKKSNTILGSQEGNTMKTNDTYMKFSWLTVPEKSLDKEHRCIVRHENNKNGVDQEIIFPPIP

B1: 1D7v158×5T4 bispecific γδTCR×5T4 molecule (bispecific antibody, part only; not given: anti-5T4 VHH, Fc halves, not shown: a dimerising Fc or GST)
chain, part: EVQLLESGGGEVQPGGSLRLSCVASRGKISQYRMGWYRQAPGKQRELVAHISNTGDAAEYVAPVKGRFTISRDNAKNALYLQMNSLRAEDTAVYKCNTVEDILAWGQGTLVTVEP
B1 came in with a potency (EC50) of γδ T cell-mediated caspase-3/7 activation / cytotoxicity on A375 cells, against the molecule comprising 1D7v9 of 2 fold.

(Values after patent publication US20250066477A1.)
